Measurements reported in the supplement of paper PMC10724198.
± gives the standard deviation of the averaged measurements.

tested on: Saccharomyces cerevisiae; test: protein stability index of tFT-peptide fusion (C-terminal peptide) (PSI (0-1 scale)); higher = more stable (slower turnover); conditions: genetic background: wild type; temperature: 37 C
Description: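 MPS profiling in S. cerevisiae of the tFT-X12 degron library: putative degron peptides plus stable controls, 12 aa, fused to the C-terminus of a sfGFP-mCherry timer. Cells are FACS-sorted into 8 mCherry/sfGFP bins and deep-sequenced. PSI runs from 0 (unstable) to 1 (stable). Backgrounds are wild type, das1Δ and doa10Δ at 30 °C, and wild type, das1Δ, cdc34-1 and cdc53-1 at 37 °C; 2-3 technical replicates each.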

Row | Sequence | protein stability index
1 | VVCFVVCGFYLG | 0.428 ± 0.024
2 | VVCLLGIFYGFC | 0.51 ± 0.014
3 | VVLCQVCVLWGW | 0.229 ± 0.025
4 | VVLVLLCIGRLL | 0.475 ± 0.011
5 | VVWIQRTVLSLI | 0.327 ± 0.0052
6 | VWFFGVVLGGLW | 0.561 ± 0.03
7 | VWRLCFPFALVR | 0.1406 ± 0.00093
8 | VWVISLCIGGVG | 0.3811 ± 0.002
9 | VYFRMGFMRVCV | 0.493 ± 0.015
10 | VYFRYWLLVVVF | 0.15 ± 0.0062
11 | VYRILFWFLCFG | 0.529 ± 0.045
12 | WDPEVVHRLWLN | 0.155 ± 0.019
13 | WFCCAQRGVIVG | 0.478 ± 0.0083
14 | WFFRLFFLFFSG | 0.412 ± 0.02
15 | WFLMVILYTVYG | 0.278 ± 0.013
16 | WGCTGGRGRLVC | 0.555 ± 0.024
17 | WGGIASLVASAA | 0.378 ± 0.023
18 | WLFASCVFFWSS | 0.483 ± 0.011
19 | WLSFAIECGMVW | 0.287 ± 0.032
20 | WLTCSLVFNVFW | 0.471 ± 0.015

Row | Sequence | protein stability index
21 | WQSFRDKLIKGN | 0.3754 ± 0.0012
22 | WRCECELASACA | 0.486 ± 0.0079
23 | WRGALHPTPVAA | 0.4 ± 0.017
24 | WSNICFWCGVWS | 0.6615 ± 0.0049
25 | WSWVFVVLRFGR | 0.562 ± 0.014
26 | WVLFRLPYQFFS | 0.633 ± 0.0017
27 | WWDCAVWVRCGG | 0.516 ± 0.012
28 | YCAMVAVGVVGG | 0.493 ± 0.012
29 | YCLSCLAKASLM | 0.38 ± 0.011
30 | YFCVELSVFGFF | 0.476 ± 0.033
31 | YFFFLFFLLPPF | 0.498 ± 0.0073
32 | YGHLPLLVLFCV | 0.399 ± 0.022
33 | YHRKAILMCTFS | 0.461 ± 0.021
34 | YIFLPIALVFFP | 0.488 ± 0.015
35 | YLFFHMVVLVVV | 0.149 ± 0.019
36 | YLGSLQVPVHLF | 0.455 ± 0.011
37 | YMPKHKIQKLMQ | 0.607 ± 0.018
38 | YMVSLSFTLVRS | 0.4552 ± 0.0036
39 | YSGRYRTLVRCW | 0.384 ± 0.02
40 | YVCVVSVLLGLL | 0.3823 ± 0.0025

tested on: Saccharomyces cerevisiae; test: as above; conditions: genetic background: wild type; temperature: 30 C

Row | Sequence | protein stability index
41 | VLCFTSAYHRLV | 0.425 ± 0.049
42 | VLFLLLFVSRVA | 0.3312 ± 0.0014
43 | VLLCFFLGIVGF | 0.396 ± 0.045
44 | VLLSFVFCGWVR | 0.442 ± 0.019
45 | VLLVSVFVATLL | 0.21 ± 0.012
46 | VLVVASLRFSFF | 0.249 ± 0.017
47 | VLVVRVLLSDLV | 0.262 ± 0.0089
48 | VLVVWLGICFGY | 0.259 ± 0.011
49 | VMYRGVRISWFL | 0.38459 ± 6.1e-05
50 | VNILFCLFFLLV | 0.412 ± 0.013
51 | VPQMLVSVCLSN | 0.348 ± 0.011
52 | VPQQWFAETGRC | 0.745 ± 0.019
53 | VRFPVFFIILFL | 0.239 ± 0.018
54 | VRGSPNVMWKSQ | 0.398 ± 0.035
55 | VRLHIAMWLRRC | 0.14 ± 0.027
56 | VRNKFSYVLRLN | 0.179 ± 0.016
57 | VRVLPFCWCIVR | 0.274 ± 0.0053
58 | VSIVLHSVPCGG | 0.453 ± 0.035
59 | VSRVHIRIEGNH | 0.528 ± 0.082
60 | VSVQVRCCPWVG | 0.7153 ± 0.0063
61 | VVATLRCLRCSV | 0.405 ± 0.021

Row | Sequence | protein stability index
62 | VVCFVVCGFYLG | 0.205 ± 0.055
63 | VVCLLGIFYGFC | 0.446 ± 0.07
64 | VVLCQVCVLWGW | 0.257 ± 0.016
65 | VVLVLLCIGRLL | 0.376 ± 0.0063
66 | VVWIQRTVLSLI | 0.27 ± 0.049
67 | VWFFGVVLGGLW | 0.4443 ± 0.0021
68 | VWRLCFPFALVR | 0.194 ± 0.02
69 | VWVISLCIGGVG | 0.314 ± 0.025
70 | VYFRMGFMRVCV | 0.4611 ± 0.0042
71 | VYFRYWLLVVVF | 0.129 ± 0.019
72 | VYRILFWFLCFG | 0.4679 ± 0.0011
73 | WDPEVVHRLWLN | 0.237 ± 0.019
74 | WFCCAQRGVIVG | 0.405 ± 0.012
75 | WFFRLFFLFFSG | 0.383 ± 0.0048
76 | WFLMVILYTVYG | 0.299 ± 0.0077
77 | WGCTGGRGRLVC | 0.428 ± 0.049
78 | WGGIASLVASAA | 0.364 ± 0.0089
79 | WLFASCVFFWSS | 0.426 ± 0.0054
80 | WLSFAIECGMVW | 0.357 ± 0.045
81 | WLTCSLVFNVFW | 0.438 ± 0.0061
82 | WQSFRDKLIKGN | 0.264 ± 0.071

Row | Sequence | protein stability index
83 | WRCECELASACA | 0.431 ± 0.013
84 | WRGALHPTPVAA | 0.339 ± 0.0086
85 | WSNICFWCGVWS | 0.458 ± 0.057
86 | WSWVFVVLRFGR | 0.527 ± 0.048
87 | WVLFRLPYQFFS | 0.436 ± 0.0098
88 | WWDCAVWVRCGG | 0.471 ± 0.015
89 | YCAMVAVGVVGG | 0.509 ± 0.03
90 | YCLSCLAKASLM | 0.28811 ± 0.00011
91 | YFCVELSVFGFF | 0.4 ± 0.036
92 | YFFFLFFLLPPF | 0.374 ± 0.029
93 | YGHLPLLVLFCV | 0.366 ± 0.049
94 | YHRKAILMCTFS | 0.443 ± 0.078
95 | YIFLPIALVFFP | 0.363 ± 0.083
96 | YLFFHMVVLVVV | 0.157 ± 0.018
97 | YLGSLQVPVHLF | 0.352 ± 0.011
98 | YMPKHKIQKLMQ | 0.491 ± 0.067
99 | YMVSLSFTLVRS | 0.481 ± 0.041
100 | YSGRYRTLVRCW | 0.33 ± 0.015
101 | YVCVVSVLLGLL | 0.31 ± 0.031

tested on: Saccharomyces cerevisiae; test: as above; conditions: genetic background: das1 deletion; temperature: 30 C
Description: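 MPS profiling in S. cerevisiae of the yeast C-terminome library: the last 12 aa of each annotated ORF are fused to the C-terminus of a sfGFP-mCherry timer, after a GGGS linker. Cells are FACS-sorted into 8 mCherry/sfGFP bins and deep-sequenced. PSI runs from 0 (unstable) to 1 (stable); wild type and das1Δ backgrounds, two technical replicates each.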

Row | Sequence | protein stability index
102 | AAAIAGAAALLL [DAN1 C-terminal 12 aa] | 0.712 ± 0.013
103 | AAPQDINQQPNQ [LDS1 C-terminal 12 aa] | 0.727 ± 0.028
104 | AAQLSSILPKYM [YLR140W C-terminal 12 aa] | 0.674 ± 0.056
105 | AAVAKQKVSDSK [DHR2 C-terminal 12 aa] | 0.664 ± 0.024
106 | AAVRQRREVNKK [ARO4 C-terminal 12 aa] | 0.6893 ± 0.006
107 | ADFLAKKGASRR [RNH1 C-terminal 12 aa] | 0.6944 ± 0.002
108 | ADVRYPNIDDYL [HCS1 C-terminal 12 aa] | 0.73454 ± 6.5e-05
109 | AEELWADIVGSA [TRP2 C-terminal 12 aa] | 0.75126 ± 0.00045
110 | AFEELYMGNCND [SIR1 C-terminal 12 aa] | 0.7218 ± 0.0021
111 | AFFAVILLYIPG [YKR073C C-terminal 12 aa] | 0.287 ± 0.027
112 | AFMMICEKLITL [SEC59 C-terminal 12 aa] | 0.7062 ± 0.0011
113 | AGALAAVAAMLL [TIR4 C-terminal 12 aa] | 0.707 ± 0.037
114 | AGALAVAAAYLL [CWP1 C-terminal 12 aa] | 0.693 ± 0.013
115 | AGSSKFLKGAKI [MRS1 C-terminal 12 aa] | 0.707 ± 0.037

same assay, conditions: genetic background: wild type; temperature: 30 C

Row | Sequence | protein stability index
116 | AAAIAGAAALLL [DAN1 C-terminal 12 aa] | 0.732 ± 0.035
117 | AAPQDINQQPNQ [LDS1 C-terminal 12 aa] | 0.671 ± 0.0087
118 | AAQLSSILPKYM [YLR140W C-terminal 12 aa] | 0.566 ± 0.063
119 | AAVAKQKVSDSK [DHR2 C-terminal 12 aa] | 0.654 ± 0.024
120 | AAVRQRREVNKK [ARO4 C-terminal 12 aa] | 0.676 ± 0.04
121 | ADFLAKKGASRR [RNH1 C-terminal 12 aa] | 0.698 ± 0.03
122 | ADVRYPNIDDYL [HCS1 C-terminal 12 aa] | 0.713 ± 0.048
123 | AEELWADIVGSA [TRP2 C-terminal 12 aa] | 0.684 ± 0.019
124 | AFEELYMGNCND [SIR1 C-terminal 12 aa] | 0.674 ± 0.035
125 | AFFAVILLYIPG [YKR073C C-terminal 12 aa] | 0.302 ± 0.018
126 | AFMMICEKLITL [SEC59 C-terminal 12 aa] | 0.5394 ± 0.0032
127 | AGALAAVAAMLL [TIR4 C-terminal 12 aa] | 0.679 ± 0.024
128 | AGALAVAAAYLL [CWP1 C-terminal 12 aa] | 0.669 ± 0.0081
129 | AGSSKFLKGAKI [MRS1 C-terminal 12 aa] | 0.673 ± 0.0098
